In one data set the test system is IKKβ. The data set is described as follows: IKKβ immunoprecipitation / in vitro kinase assay. Type of data set: cell-based. The conditions noted are these: Flag-IKKβ immunoprecipitated, GST-IκBα (1-72) substrate; TNF-α treatment alone. As for the experimental part: Next, we asked if CYLD could physically associate with known members of the NF-κB signalling machinery. In this experiment, 293 cells were transfected as indicated, lysates were prepared 48 hours later and the protein complexes immunoprecipitated (IP) using Flag antibody. Ips were immunoblotted for HA-tagged CYLD and whole cell extracts were immunoblotted fro Flag-tagged IκBα, IκKβ and NEMO/IKKγ and for HA-tagged CYLD. CYLD co-immunoprecipitated specifically with NEMO/IKKγ, but not with […] or IκBα. […] To address this, we measured IKKβ kinase activity following TNF-α stimulation in the presence and absence of CYLD knockdown, using an in vitro kinase assay. In summary, U2-S cells were co-transfected with Flag-tagged IKKβ and pSUPER-CYLD or empty vector. Cells were stimulated as indicated, IKKβ was immunoprecipitated from cell lysates and incubated with GST-IκBα (1-72) in the presence of ^32P-γATP. Immunoprecipitated IKKβ was visualised by immunoblotting with Flag antibody. In the absence of TNF-α, no IKKβ kinase activity towards IκBα could be detected.
Western blots were performed using whole cell extracts, separated on 8-12% SDS-PAGE gels and transferred to polyvinylidine difuoride membranes (Millipore). Western blots were probed with the indicated antibodies. […]

For another data set, the system named is Hela cells. The data set can be described thus: TNF-α/cycloheximide-induced apoptosis assay in Hela cells. The conditions noted are these: 12-hour treatment with TNF-α in the presence of cycloheximide. Type of data set: cell-based. The text has this:
This pro-apoptotic activity of TNF-α can be inhibited by simultaneous activation of NF-κB; which activates a number of anti-apoptotic genes^15. Since CYLD knockdown stimulates PMA-induced activation of NF-κB, we asked if CYLD and PMA also collaborate to inhibit TNF-α induced apoptosis. To address this, we treated Hela cells with TNF-α in the presence of cycloheximide (CHX) to induce apoptosis both with and without pre-treatment with PMA (see methods). […] Consistent with this notion, CYLD knockdown and PMA also collaborated in NF-κB activation in Hela cells.
As was discussed above, it is possible that loss of the CYLD tumour suppressor gene confers resistance to apoptosis through activation of NF-κB. If this notion is correct, one would expect that the protective effect of CYLD knockdown on apoptosis can be reversed by the NF-κB inhibitor aspirin. We tested this by treating Hela cells with TNF-α (10 ng/ml) and PMA (200 ng/ml) or PMA and aspirin (8 mM) in the presence of CYLD knockdown. Cycloheximide (10 μg/ml) was used alongside TNF to induce apoptosis.
Electroporated Hela cells with the indicated plasmids were treated with 200 nM PMA for 2-3 hrs 72 hrs post-transfection followed by 12 hrs incubation in medium containing 10 ng/ml TNF-α and 10 μg/ml cycloheximide. Viable cells were quantified using the trypan-blue exclusion method. Alternatively, apoptotic cells were removed by PBS washing, adherent cells were fixed in 4% paraformaldehyde and stained using 0.1% crystal violet (Sigma) and the optical density at 590 nm was determined as described^22. To inhibit NF-κB activity medium was supplemented with 10 mM Sodium acetylsalicylic acid 3.5 hrs before TNF-α addition.

On to TNF-α, for which the “IKKβ kinase activity towards IκBα” value with IKKβ is “significantly stimulated”. For the same substance, the “apoptosis of Hela cells” value in the data set on Hela cells is given as about 95%.

These data come from patent US20060105344A1, “Modulation of deubiquitinase family members” (priority 2003, published 2006).
